Data from the RNAGym collection of RNA variant scans (doi:10.1073/pnas.2313332121).

B1: TPR t1 (parent)
chain: GACCAAUCUGCCCUCAGAGCUCGAGAACAUCUUCGGAUGCAGAGGAGGCAGGCUUCGGUGGCGCGAUAGCGCCAACGUCCUCAACCUCCAAUGCAUCCCACCACAUGAUGAUGCCUGAAGAGCCUUGGUUUUUUG

Variants of: B1
Experiment: polymerase ribozyme fitness, log enrichment relative to wild type (log ratio); higher = more active; in vitro selection for triplet polymerase activity
In short: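 For each subunit of a heterodimeric triplet polymerase ribozyme, a mutant library was built by PCR and transcribed, then taken through a single in vitro selection round in triplicate. Selection involved annealing to a biotinylated primer, the partner subunit and triplets, incubation frozen at −7 °C, gel excision of extended constructs, capture on streptavidin beads and RT-PCR. Genotypes were retained after Illumina sequencing of inputs and outputs only with ≥10 input reads and ≥1 read in each output. Fitness is defined as the logarithm of a genotype's enrichment relative to wild-type enrichment, using inverse-variance-weighted averages across replicates, with the logarithm taken to base 2.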

Row | Variant | polymerase ribozyme fitness (log ratio)
1 | GACCAAUCUGCCCUCUGAGCUCGAGAACAUCUUCGGAUGCAGAGGAGGCAGGCUUCGGUGGCGCGAUAGAGCCAACGUCCUCAACCUCCAAUGCAUCCCACCACAUGAUGAUGCCCGAAGAGCCUUGGUGUUUUG [A16U C70A U116C U130G] | -2.69
2 | GACCAAUCUGCCCUCUUAGCUCGAGAACAUCUUCGGAUGCAGAGGAGGCAGGCUUCGGUGGCGCGAUAGCGCCAACGUCCUCAACCUCCAAUGCAUCCCACCACAUGAUGAUGCCUGAAGAGCAUUGGUUUUUUG [A16U G17U C124A] | -1.9
3 | GACCAAUCUGCCCUCUGAGCUCGAGAACAUCUUCGGAUGCAGAGGAGGCAGGCUUCGGUGGCGCGAUAGCGGCAACGUCCUCAACCUCCAAUGCAUCCCACCAUAUGAUGAUGCCUGAAGAGCCUUGGUUUUUUG [A16U C72G C104U] | -1.7
4 | GACCAAUCUGCCCUCUGAGCUCGAGAACAUCUUCGGAUGCAGAGGAGGCAGGCUUCGGUGGCGAGAUAGCGCCAACGUCCUCAACCUCAAAUGCAUCCCACCACAUGAUGGUGCCUGAAGAGCCUUGGUGUUUUG [A16U C64A C89A A111G U130G] | -5.81
5 | GACCAAUCUGCCCUCUGAGCUCGAGAACAUCUUCGGAUGCAGAGGAGGCAGGCUUCGGUGGCGCGAUAGCGCCAACGUCCUCAACCUUCAAUGCAUCCCACCACAUGAUGAUGCCUGAAGAGCCUUGGUUUUUUG [A16U C88U] | -1.68
6 | GACCAAUCUGCCCUCUGAGCUCGAGAACAUCUUCGGAUGCAGAGGAGGAAGGCUUCGGUGGCGCGAUAGCGCCAACGUCCUCAACCUCCAAUGCAUCCCACCACAUGAUGAUGCCUGAAGUGCCUUGGGUUUUUG [A16U C49A A121U U129G] | -0.0419
7 | GACCAAUCUGCCCUCUGAGCUCGAGAAUAUCUUCGGAUGCAGAGGAGGCAGGCUUCGGUGGCGCGAUAGCUCCAACGUCCUCAACCUCCAAUGCAUCCCACCACAUGAUGAUGCCUGAAGAGCCUUGGUUUUUUG [A16U C28U G71U] | -3.34
8 | GACCAAUCUGCCCUCUGAGCUCGAGAACAUCUUCGGAUGCAGAGGAGGCAGGCUUCGGUGGCGCGAUAGCGCCAACGUCCUCAACCUCCAAUGCCUCCCACCACAUGAUGAUGCCUGAAGAGCCUUGGUUUUUUG [A16U A95C] | -2.59
9 | GACCAAUCUGCCCUCUGAGCUCGAGAACAUCUUCGGAUGCAGAGGAGGCAGGCUUCGGUGGCGUGAUAGCGCCAACGUCCUCAACCUCCAAUGCAUCCCACCACAUGAUGAUGCCUGAAGAGCCUUGGUUUUUUG [A16U C64U] | -1.71
10 | GACCAAUCUGCCCUCUGAGCUCGAGAACAUCUUCGGAUGCAGAGGAGGCAGGCUUCGGUGGCGCGAUAGCGCCAACGUCCUCAACCUCCAAUGCAUCCCACCACCUGAUGAUGCCUGAAUAGCCUUGGUUUUUUG [A16U A105C G120U] | -3.61
11 | GACCAAUCUGCCCUCUGAGCUCGAGAACAUCUUCGGAUGCAGAGGAGGCAGGCUUCGGUGGCGCGAUAGCGCCAACGUCCUGAACCACCAAUGCAUCCCACCACAUGAUGAUGCCUGAAGAGCCUUGGUUUUUUG [A16U C82G U87A] | -3.81
12 | GACCAAUCUGCCCUCUGAGCUCGAGAACAUCUUCGGAUGUAGAGGAGGCAGGCUUCGGUGGCGCGAUAGCGCGAACGUCCUCAACCUCCAAUGCAUCCCACCACAUGAUGAUGCCUGAAGAGCCUUGGUUUUUUG [A16U C40U C73G] | -2.11
13 | GACCAAUCUGCCCUCUGAGCUCGAGAACAUCUUCGGAUGCAGAGGAGGCAGGCUUCGGUGGCGUGAUAGCGCCAACGUCCUCAACCACCAAUGCAUCCCACCACAUGAUGAAGCCUGGAGAGCCUUGGUUUUUUG [A16U C64U U87A U112A A118G] | -2.35
14 | GACCAAUCUGCCCUCUGAGCUCGAGAACAUCUUCGGAUGCAGAGGAGGCAGGCUUCGGUGGCGCGAUAGCGCCAACGUCCUCAACCUCGAAUGCAUCCCACCACAUGAUGAUGCCUGAAGAGCCUUGGUCUUUUG [A16U C89G U130C] | -2.31
15 | GACCAAUCUGCCCUCUGAGCUCGAGAACAUCUUCGGAUGCAGAGGAGGCAGGCUUCGGUGGCGCGAUAGCGUCAACGUCCUCAACCUCCAAUGCAUCCCACCACAUGAUGAUGCCUGAAGAGCCUUGGUUUUUUG [A16U C72U] | -1.94
16 | GACCAAUCUGCCCUCUGAGCUCGAGAACAUCUUCGAAUGCAGAUGAGGCAGGCUUCGGUGGCGCGAUAGCGCCAACGUCCUCCACCUCCAAUGCAUCCCACCACAUGAUGAUGCCUGAAGAGCCUUGGUUUUUUG [A16U G36A G44U A83C] | -5.08
17 | GACCAAUCUGCCCUCUGAGCUCGAGAACAUCUUCGGAUGCAGAGGAGGCAGGCUUCGGUGGCGCGAUAGUGCCAACGUCCUCAACCUCCAAUGCAUCCCACCACAUGAUGAUGCCUGAAGAGCCUUGGUUUUUUG [A16U C70U] | -1.98
18 | GACCAAUCUGCCCUCUGAGCUCGAGAACAUCUUCGGAUGCAGAGGAGGCAGGCUUCGGUGGCGCGAUAGCGCCAACGUCCUCAACCUCCAAUGCAUCCCACCACAUGAUGAUGCCUGAAGAGACAUGGUUUUUUG [A16U C123A U125A] | -0.935
19 | GACCAAUCUGCCCUCUGAGAUCGAGAACAUCUUCGGAUGCAGAGGAGGCAGGCUUCGGUGGUGCGAUAGCGCCAACGUCCUCCACCUCCAAUGCAUCCCACCACAUGAUGAUGCCUGAAAAGCCUUGGUUUUUUG [A16U C20A C62U A83C G120A] | -6.31
20 | GACCAAUCUGCCCUCUCAGCUCGAGAACAUCUUCGGAUGCAGAGGAGGCAGGCUUCGGUGGCGCGAUAGCGCUAACGUCCUCAACCUCCAAUGCAUCCCACCACAUGAUGAUGCCUGAAGAGCCUUGGUUUUUUG [A16U G17C C73U] | -3.41
21 | GACCAAUCUGCCCUCUGAGCUCGAGAACAUCUUCGGAUGCAGAGGAGGCAGGGUUCGGUGGCGCGAUAGCGCCAACGUCCUCAACCUCCAAUCCAUCCCACCACAUGAUGAUGCCUGAAGAGACUUGGUUUUUUG [A16U C53G G93C C123A] | -1.64
